Experimental data as given in patent US20130089555A1 (Genentech, published 2013).

How the values were obtained:
[1] = molecular target: T1, human FcRH5 on stably transfected cells (BJAB, OPM2) (human, UniProt Q96RD9 16-977); experiment: Scatchard, 125I-labelled antibody competed with the unlabelled same antibody on BJAB.huFcRH5 cells, 4 C; St. Error 0.046
T1 construct: Cells were transfected with pRK.CMV.PD.nbe.FcRH5 (untagged); also called huFcRH5; BJAB.huFcRH5
T1 chain: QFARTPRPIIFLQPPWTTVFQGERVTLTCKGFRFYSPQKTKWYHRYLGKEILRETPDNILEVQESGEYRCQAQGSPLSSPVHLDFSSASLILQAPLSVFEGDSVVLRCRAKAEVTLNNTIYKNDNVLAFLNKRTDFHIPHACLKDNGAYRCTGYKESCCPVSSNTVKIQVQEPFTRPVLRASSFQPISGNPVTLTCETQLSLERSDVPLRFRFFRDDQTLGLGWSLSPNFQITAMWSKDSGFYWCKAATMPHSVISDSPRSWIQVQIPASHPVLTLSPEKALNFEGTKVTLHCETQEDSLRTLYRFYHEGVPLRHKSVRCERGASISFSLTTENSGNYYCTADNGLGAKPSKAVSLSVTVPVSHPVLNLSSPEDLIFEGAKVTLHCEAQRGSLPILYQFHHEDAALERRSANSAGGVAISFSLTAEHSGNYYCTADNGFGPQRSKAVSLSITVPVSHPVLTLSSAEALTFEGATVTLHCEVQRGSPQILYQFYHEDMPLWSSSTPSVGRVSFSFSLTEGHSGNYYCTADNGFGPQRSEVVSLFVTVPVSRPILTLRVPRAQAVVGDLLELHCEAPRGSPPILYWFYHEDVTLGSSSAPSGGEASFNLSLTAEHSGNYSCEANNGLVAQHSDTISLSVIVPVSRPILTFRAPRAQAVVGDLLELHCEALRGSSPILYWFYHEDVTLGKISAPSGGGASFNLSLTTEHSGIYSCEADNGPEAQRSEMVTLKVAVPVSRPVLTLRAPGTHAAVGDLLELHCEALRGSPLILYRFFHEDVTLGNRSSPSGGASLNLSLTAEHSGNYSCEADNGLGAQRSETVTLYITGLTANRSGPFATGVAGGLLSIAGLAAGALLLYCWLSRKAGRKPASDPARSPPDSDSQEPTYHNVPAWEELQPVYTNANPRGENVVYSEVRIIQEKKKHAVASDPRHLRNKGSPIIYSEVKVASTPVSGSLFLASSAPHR

[2] = molecular target: T2, cynomolgus FcRH5 on stably transfected SVT2 cells (cynomolgus monkey); experiment: Scatchard, 125I-labelled antibody competed with the unlabelled same antibody on SVT2.cyFcRH5 cells, 4 C; St. Error 0.530
T2 construct: also called cyno FcRH5; cynoFcRH5
T2 chain: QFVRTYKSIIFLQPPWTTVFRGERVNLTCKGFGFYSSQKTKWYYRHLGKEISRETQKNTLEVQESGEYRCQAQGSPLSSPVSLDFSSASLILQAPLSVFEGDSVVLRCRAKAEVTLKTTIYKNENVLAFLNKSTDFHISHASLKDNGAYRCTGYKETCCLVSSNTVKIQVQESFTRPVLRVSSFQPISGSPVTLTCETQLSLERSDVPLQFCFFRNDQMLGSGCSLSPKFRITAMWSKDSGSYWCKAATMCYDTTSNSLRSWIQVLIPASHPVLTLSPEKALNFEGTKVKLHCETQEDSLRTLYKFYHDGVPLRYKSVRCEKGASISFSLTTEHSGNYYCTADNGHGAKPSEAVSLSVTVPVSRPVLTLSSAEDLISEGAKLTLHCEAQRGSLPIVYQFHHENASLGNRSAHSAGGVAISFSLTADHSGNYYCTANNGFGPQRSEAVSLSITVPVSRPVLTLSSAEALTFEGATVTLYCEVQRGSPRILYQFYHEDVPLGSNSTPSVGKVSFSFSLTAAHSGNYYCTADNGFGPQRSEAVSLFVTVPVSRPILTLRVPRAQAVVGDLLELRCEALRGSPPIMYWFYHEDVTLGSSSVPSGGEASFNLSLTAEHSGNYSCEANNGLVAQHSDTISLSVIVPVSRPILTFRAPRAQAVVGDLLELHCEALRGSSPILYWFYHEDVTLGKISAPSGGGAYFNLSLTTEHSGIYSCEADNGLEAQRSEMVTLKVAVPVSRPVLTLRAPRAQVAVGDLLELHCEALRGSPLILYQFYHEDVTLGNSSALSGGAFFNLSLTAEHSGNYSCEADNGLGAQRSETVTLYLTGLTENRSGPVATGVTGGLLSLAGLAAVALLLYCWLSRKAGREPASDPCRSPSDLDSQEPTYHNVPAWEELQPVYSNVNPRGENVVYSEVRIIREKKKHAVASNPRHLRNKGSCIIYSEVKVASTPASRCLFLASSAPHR
Protocol: (§1) To further determine binding of the FcRH5 murine antibodies and IgG clones, binding of iodinated IgG variants to OPM2 cells expressing human FcRH5 and SVT2 cells expressing cynomologous FcRH5, Scatchard analysis was performed.
(§2) For Scatchard analysis, 0.5 nM I¹²⁵ labeled murine or IgG clone anti-FcRH5 was competed against unlabeled murine or IgG clone anti-FcRH5, respectively, ranging from 50 to 0.02 nM (12 step 1:2 serial dilution) in the presence of a transfected OPM2 line stably expressing human-FcRH5 and a transfected SVT2 line stably expressing cynomologous-FcRH5. After a four hour incubation at 4° C., cells were washed and cell pellet counts were read by a gamma counter (1470 WIZARD Automatic Gamma Counter; Perkin Elmer, Walthem, Mass.). All points were done in triplicate and counted for 10 minutes. The average CPM was used for Kd calculation using the New Ligand (Genentech, South San Francisco, Calif.) program.

[3] = molecular target: T2, cynomolgus FcRH5 on stably transfected …; experiment: Scatchard, 125I-labelled antibody competed with the unlabelled same antibody on SVT2.cyFcRH5 cells, 4 C; St. Error 0.027
[4] = molecular target: T1, human FcRH5 on stably transfected cells …; experiment: Scatchard, 125I-labelled antibody competed with the unlabelled same antibody on BJAB.huFcRH5 cells, 4 C; St. Error 0.007
[5] = molecular target: T1, human FcRH5 on stably transfected cells …; experiment: Scatchard, 125I-labelled antibody competed with the unlabelled same antibody on OPM2.huFcRH5 cells, 4 C; St. Error 0.150
Protocol: as §1, §2

[6] = molecular target: T2, cynomolgus FcRH5 on stably transfected …; experiment: Scatchard, 125I-labelled antibody competed with the unlabelled same antibody on SVT2.cyFcRH5 cells, 4 C; St. Error 1.340
Protocol: as §1, §2

[7] = molecular target: T3, human FcRH5 (PRO52387; FcRH5c/IRTA2c), antigen as used in Biacore and in hybridoma screening (human, UniProt Q96RD9 16-851, limits assumed); experiment: SPR (Biacore 2000), IgG captured on anti-murine IgG chip, FcRH injected, 1:1 Langmuir fit, 25 C
T3 construct: The Biacore text only says that 'various FcRHs were injected'; also called Hu antigen; FcRH5/IRTA2
T3 chain: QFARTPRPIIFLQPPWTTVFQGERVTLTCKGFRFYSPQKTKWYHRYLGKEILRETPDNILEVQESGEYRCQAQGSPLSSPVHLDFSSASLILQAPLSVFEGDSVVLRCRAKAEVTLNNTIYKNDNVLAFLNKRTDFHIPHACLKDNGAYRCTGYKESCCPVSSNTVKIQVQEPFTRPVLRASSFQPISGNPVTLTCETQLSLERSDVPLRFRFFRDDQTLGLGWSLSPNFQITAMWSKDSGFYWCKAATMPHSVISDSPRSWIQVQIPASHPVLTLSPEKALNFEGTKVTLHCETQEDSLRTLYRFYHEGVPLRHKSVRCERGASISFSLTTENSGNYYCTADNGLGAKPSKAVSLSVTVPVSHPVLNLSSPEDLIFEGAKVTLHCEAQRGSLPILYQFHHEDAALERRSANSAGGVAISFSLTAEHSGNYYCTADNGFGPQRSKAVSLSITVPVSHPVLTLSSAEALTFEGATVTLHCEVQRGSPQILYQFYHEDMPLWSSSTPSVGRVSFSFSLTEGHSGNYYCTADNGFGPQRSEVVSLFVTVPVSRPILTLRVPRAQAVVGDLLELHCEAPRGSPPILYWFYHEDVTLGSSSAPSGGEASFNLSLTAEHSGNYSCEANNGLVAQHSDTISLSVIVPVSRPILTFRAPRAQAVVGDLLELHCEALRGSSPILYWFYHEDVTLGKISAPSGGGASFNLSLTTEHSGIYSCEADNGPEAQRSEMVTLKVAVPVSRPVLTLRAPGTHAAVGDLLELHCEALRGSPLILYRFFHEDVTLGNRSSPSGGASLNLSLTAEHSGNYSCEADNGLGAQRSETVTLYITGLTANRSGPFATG
Protocol: The FcRH-binding affinities of IgGs were calculated from association and dissociation rate constants measured using a Biacore 2000 surface plasmon resonance system (BIAcore, Inc.). […] Briefly, for each cycle of kinetic analysis, 5 ul of 100 nM IgG was captured on the chip, two-fold serial dilution of various FcRHs were injected at a flow rate of 20 ul/min for 150 sec. Antigen dissociation was monitored for 180 sec before regeneration. Equilibrium dissociation constants at 25° C. were calculated by fitting the data with a 1:1 Langmuir binding model. Running buffer was PBS with 0.05% Tween-20.

[8] = molecular target: T2, cynomolgus FcRH5 on stably transfected …; experiment: Scatchard, 125I-labelled antibody competed with the unlabelled same antibody on SVT2.cyFcRH5 cells, 4 C; St. Error 0.022
Protocol: as §1, §2

[9] = molecular target: T1, human FcRH5 on stably transfected cells …; experiment: Scatchard, 125I-labelled antibody competed with the unlabelled same antibody on OPM2.huFcRH5 cells, 4 C; St. Error 0.050
Protocol: as §1, §2

[10] = molecular target: T2, cynomolgus FcRH5 on stably transfected …; experiment: Scatchard, 125I-labelled antibody competed with the unlabelled same antibody on SVT2.cyFcRH5 cells, 4 C; St. Error 0.000
Protocol: as §1, §2

B1: murine anti-FcRH5 (10A8) monoclonal antibody (antibody, V domains shown)
VH: EVQLVESGGGLVKPGGSLKISCAASGFTFSSYAVSWVRQTPEKRLEWVATISSGGSLTFYLDSVRGRFTISRDNAKNTLYLQMSSLRSEDTAMYYCARPIPDYYALDYWGQGTSVTVSS
VL: DIVMTQSHKFMSTSVRDRVSITCKASQDVSTAVAWYQQKPGQSPKLLIYSASYRYTGVPDRFTGSGSGTDFTFTISSVQAEDLAVYYCQQHFSSPRTFGGGTKVEIKR
notes: Murine IgG from a hybridoma, detected with anti-mouse IgG1 in FACS; also called mu10A8; MA10A8
- Kd [1]: 0.44 nM
- Kd [2]: 2.74 nM

B2: murine anti-FcRH5-6H1 monoclonal antibody (antibody)
chain 1: B1 VL
chain 2: B1 VH
- Kd [3]: 0.38 nM
- Kd [4]: 0.19 nM

B3: humanized anti-FcRH5 antibody 10A8 version 1 (antibody, human IgG1, V domains shown)
VH: EVQLVESGGGLVQPGGSLRLSCAASGFTFSSYAVSWVRQAPGKGLEWVATISSGGSLTFYLDSVRGRFTISRDNSKNTLYLQMNSLRAEDTAVYYCARPIPDYYALDYWGQGTLVTVSS
VL: DIQMTQSPSSLSASVGDRVTITCKASQDVSTAVAWYQQKPGKAPKLLIYSASYRYTGVPSRFSGSGSGTDFTLTISSLQPEDFATYYCQQHFSSPRTFGQGTKVEIKR
notes: Full-length human IgG1 with a human kappa constant domain; also called hu10A8 v1; hu10A8
- Kd [5]: 1.44 nM
- Kd [6]: 3.04 nM

B4: murine anti-FcRH5-7D11 monoclonal antibody (antibody, V domains shown)
VH: EVQLVESGGGLVQPGGSLKLSCAASGFTFSSYGMSWVRQTPDKRLELVATITRNGGTTYYLDSVKGRFTISRDNAKNTLYLQMSSLKSEDTAMYYCARGPIYYDYGYAMDYWGQGTTVTVSS
VL: DILLTQSPAILSVSPGERVSFSCRSSQSIGTNIHWYQQRTNGSPRLLIKFASESLSGIPSRFSGSGSGTDFTLSINSVESEDFADYYCQQSNSWPLTFGAGTKVEIK
notes: Murine IgG from a hybridoma; parent of ch7D11; also called 7D11.1.1; mu7D11
- Kd [7]: 6 nM

B5: chimeric anti-human FcRH5 antibody 10A8 (antibody)
heavy: not shown
light: DIVMTQSHKFMSTSVRDRVSITCKASQDVSTAVAWYQQKPGQSPKLLIYSASYRYTGVPDRFTGSGSGTDFTFTISSVQAEDLAVYYCQQHFSSPRTFGGGTKVEIKRTVAAPSVFIFPPSDEQLKSGTASVVCLLNNFYPREAKVQWKVDNALQSGNSQESVTEQDSKDSTYSLSSTLTLSKADYEKHKVYACEVTHQGLSSPVTKSFNRGEC
notes: Murine 10A8 variable domains on human IgG1 and kappa constant domains; also called ch10A8; chMAFcRH5 (10A8)
- Kd [8]: 0.98 nM

B6: cysteine engineered chimeric anti-FcRH5 10A8, heavy chain A118C (antibody, human IgG1, kappa, name in EU numbering)
heavy: not shown
light: B5 light
notes: It is built here from the ch10A8 chains plus the stated A118C change; also called thio-ch10A8.HC; thio-ch10A8-HC(A118C)
- Kd [9]: 0.85 nM
- Kd [10]: 1.57 nM
